Biological target: PAD2 D177A mutant, purified recombinant (human (from the printed UniProt entry …, UniProt Q9Y2J8 1-665, D177A))
Assay: co-IP

Chain of PAD2 D177A mutant, purified recombinant (human (Q9Y2J8 whole entry D177A): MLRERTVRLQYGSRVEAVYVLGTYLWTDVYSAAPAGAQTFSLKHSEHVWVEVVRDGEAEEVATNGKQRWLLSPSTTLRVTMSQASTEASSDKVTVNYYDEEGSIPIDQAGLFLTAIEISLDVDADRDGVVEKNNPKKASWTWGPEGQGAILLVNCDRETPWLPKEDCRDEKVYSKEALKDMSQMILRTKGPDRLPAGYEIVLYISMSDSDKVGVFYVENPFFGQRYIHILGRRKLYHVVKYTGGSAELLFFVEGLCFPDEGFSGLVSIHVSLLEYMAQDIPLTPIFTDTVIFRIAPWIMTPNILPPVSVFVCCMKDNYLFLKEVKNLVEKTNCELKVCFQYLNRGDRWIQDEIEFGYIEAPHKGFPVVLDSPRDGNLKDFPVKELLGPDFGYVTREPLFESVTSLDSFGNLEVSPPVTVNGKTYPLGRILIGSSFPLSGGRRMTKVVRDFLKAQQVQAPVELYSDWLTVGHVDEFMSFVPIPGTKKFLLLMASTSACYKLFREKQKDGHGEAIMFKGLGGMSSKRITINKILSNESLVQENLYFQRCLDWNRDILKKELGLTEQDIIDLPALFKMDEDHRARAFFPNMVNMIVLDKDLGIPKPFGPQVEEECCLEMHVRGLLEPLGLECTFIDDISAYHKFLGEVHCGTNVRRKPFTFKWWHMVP

B1: Annexin A5 (ANXA5), purified recombinant (natural protein, UniProt P08758 1-320, looked up)
chain: MAQVLRGTVTDFPGFDERADAETLRKAMKGLGTDEESILTLLTSRSNAQRQEISAAFKTLFGRDLLDDLKSELTGKFEKLIVALMKPSRLYDAYELKHALKGAGTNEKVLTEIIASRTPEELRAIKQVYEEEYGSSLEDDVVGDTSGYYQRMLVVLLQANRDPDAGIDEAQVEQDAQALFQAGELKWGTDEEKFITIFGTRSVSHLRKVFDKYMTISGFQIEETIDRETSGNLEQLLLAVVKSIRSIPAYLAETLYYAMKGAGTDDHTLIRVMVSRSEIDLFNIRKEFRKNFATSLYSMIKGDTSGDYKKALLLLCGEDD
  binding result: binds
